Among the data in ChEMBL document CHEMBL4433268, “Rational design of a SHP-2 targeted, fluorogenic peptide substrate” (Bioorg Med Chem Lett, 2019) are kcat, Km and kcat/Km values, retold here.

Conditions in all cases: Homo sapiens
Substrate in data set [1]: CC[C@H](C)[C@H](NC(=O)[C@@H](NC(=O)[C@@H]1CCCN1C(=O)[C@H](CC(=O)O)NC(C)=O)[C@@H](C)O)C(=O)N[C@@H](Cc1cc(=O)oc2cc(OP(=O)(O)O)ccc12)C(=O)N1CCC[C@H]1C(=O)N[C@H](C(=O)N[C@@H](CC(C)C)C(=O)N[C@@H](CC(=O)O)C(N)=O)C(C)C
Description: (§1) Substrate activity at SHP2 (unknown origin) expressed in Escherichia coli BL21 (DE3) assessed as Kcat incubated for 60 mins by fluorescence based assay
Substrate in data set [2]: CC[C@H](C)[C@H](NC(=O)[C@@H](NC(=O)[C@H](CC(=O)O)NC(=O)[C@H](CC(=O)O)NC(C)=O)[C@@H](C)O)C(=O)N[C@@H](Cc1cc(=O)oc2cc(OP(=O)(O)O)ccc12)C(=O)N[C@@H](CC(=O)O)C(=O)N[C@H](C(=O)N[C@@H](CC(C)C)C(=O)N[C@@H](CC(=O)O)C(N)=O)C(C)C
Description: as §1
Substrate in data set [3]: CC[C@H](C)[C@H](NC(=O)[C@@H](NC(=O)[C@@H]1CCCN1C(=O)[C@H](CC(=O)O)NC(C)=O)[C@@H](C)O)C(=O)N[C@@H](Cc1cc(=O)oc2cc(OP(=O)(O)O)ccc12)C(=O)N1CCC[C@H]1C(=O)N[C@H](C(=O)N[C@@H](CC(C)C)C(=O)N[C@@H](CC(=O)O)C(N)=O)C(C)C
This is another data set of the same source.
Description: (§2) Substrate activity at SHP2 (unknown origin) expressed in Escherichia coli BL21 (DE3) assessed as Km incubated for 60 mins by fluorescence based assay

Substrate in data set [4]: CC[C@H](C)[C@H](NC(=O)[C@@H](NC(=O)[C@H](CC(=O)O)NC(=O)[C@H](CC(=O)O)NC(C)=O)[C@@H](C)O)C(=O)N[C@@H](Cc1cc(=O)oc2cc(OP(=O)(O)O)ccc12)C(=O)N[C@@H](CC(=O)O)C(=O)N[C@H](C(=O)N[C@@H](CC(C)C)C(=O)N[C@@H](CC(=O)O)C(N)=O)C(C)C
This is another data set of the same source.
Description: as §2

Substrate in data set [5]: CC[C@H](C)[C@H](NC(=O)[C@@H](NC(=O)[C@@H]1CCCN1C(=O)[C@H](CC(=O)O)NC(C)=O)[C@@H](C)O)C(=O)N[C@@H](Cc1cc(=O)oc2cc(OP(=O)(O)O)ccc12)C(=O)N1CCC[C@H]1C(=O)N[C@H](C(=O)N[C@@H](CC(C)C)C(=O)N[C@@H](CC(=O)O)C(N)=O)C(C)C
The source holds these as a separate data set.
Description: (§3) Substrate activity at SHP2 (unknown origin) expressed in Escherichia coli BL21 (DE3) assessed as Kcat/Km ratio incubated for 60 mins by fluorescence based assay

Substrate in data set [6]: CC[C@H](C)[C@H](NC(=O)[C@@H](NC(=O)[C@H](CC(=O)O)NC(=O)[C@H](CC(=O)O)NC(C)=O)[C@@H](C)O)C(=O)N[C@@H](Cc1cc(=O)oc2cc(OP(=O)(O)O)ccc12)C(=O)N[C@@H](CC(=O)O)C(=O)N[C@H](C(=O)N[C@@H](CC(C)C)C(=O)N[C@@H](CC(=O)O)C(N)=O)C(C)C
Description: as §3
The source holds these as a separate data set.

B1: Tyrosine-protein phosphatase non-receptor type 11 (Homo sapiens), Q06124 (protein)
chain: MTSRRWFHPNITGVEAENLLLTRGVDGSFLARPSKSNPGDFTLSVRRNGAVTHIKIQNTGDYYDLYGGEKFATLAELVQYYMEHHGQLKEKNGDVIELKYPLNCADPTSERWFHGHLSGKEAEKLLTEKGKHGSFLVRESQSHPGDFVLSVRTGDDKGESNDGKSKVTHVMIRCQELKYDVGGGERFDSLTDLVEHYKKNPMVETLGTVLQLKQPLNTTRINAAEIESRVRELSKLAETTDKVKQGFWEEFETLQQQECKLLYSRKEGQRQENKNKNRYKNILPFDHTRVVLHDGDPNEPVSDYINANIIMPEFETKCNNSKPKKSYIATQGCLQNTVNDFWRMVFQENSRVIVMTTKEVERGKSKCVKYWPDEYALKEYGVMRVRNVKESAAHDYTLRELKLSKVGQGNTERTVWQYHFRTWPDHGVPSDPGGVLDFLEEVHHKQESIMDAGPVVVHCSAGIGRTGTFIVIDILIDIIREKGVDCDIDVPKTIQMVRSQRSGMVQTEAQYRFIYMAVQHYIETLQRRIEEEQKSKRKGHEYTNIKYSLADQTSGDQSPLPPCTPTPPCAEMREDSARVYENVGLMQQQKSFR
Usually kcat stands for the number of substrate molecules converted per active site and unit of time at saturation. The Km is the concentration of substrate that gives half-maximal velocity. Usually kcat/Km stands for the second-order rate constant that governs catalysis at low substrate concentration. Turning to B1, the turnover number (kcat) came out at 0.0045 s⁻¹ in data set [1] and 0.059 s⁻¹ in data set [2]. Moreover, the Michaelis constant (Km) came to 700 µM in data set [3] and 220 µM in data set [4]. Further, the kcat/Km in data set [5] is 6 to 6.4 M⁻¹ s⁻¹; in data set [6], 270 M⁻¹ s⁻¹.
